B1: Teichoic acid D-alanyltransferase (Streptococcus thermophilus (strain ATCC BAA-250 / LMG 18311)), Q5M4V4 (parent)
chain: MIDFLKQLPHLEPYGNPFYFIYLGIALLPIFIGLFFKKRFAIYECLVSITFIVLALTGTHASQILALLFYIVWQIIWVYSYKRYRSQRDNKWVFYLHSFLVVLPLILVKVEPTINGTQSLLNFLGISYLTFRAVGMIIEMRDGVLKEFTLGEFLRFMLFMPTFTSGPIDRFKRFNEDYQSIPNRDELLNMLEQAVKYIMLGFLYKFVLAQIFGSMLLPPLKAQALSQGGIFNLPTLGVMYVYGFDLFFDFAGYSMFALAVSNLMGIKSPINFDKPFISRDMKEFWNRWHMSLSFWFRDFVFMRLVIVLMRNKVFKNRNTTSNVAYIINMMVMGFWHGITWYYIAYGIFHGIGLVINDAWLRKKKTINKDRKKAGLKPLPENKWTKALGIFITFNTVMLSFLIFSGFLNDLWFTKK
partner: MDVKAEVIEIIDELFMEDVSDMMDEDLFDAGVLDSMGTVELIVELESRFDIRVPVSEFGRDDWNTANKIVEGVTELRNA
B2: D-alanyl carrier protein (Streptococcus thermophilus (strain ATCC BAA-250 / LMG 18311)), Q5M4V3 (parent)
chain: B1 partner
partner: B1 chain

Variants of: B1
Settings: with dltc_strt2 dltC

Q: For V305D, which “effect of a mutation on the interaction” value is on record?
A: decreasing interaction

Q: How did the “effect of a mutation on the interaction” value turn out when V305D;I306D was run?
A: disrupting interaction

Variants of: B1
Settings: with dltc_strt2 dltC, Q5M4V3

Q: Which “effect of a mutation on the interaction” value does the source give for V305D;I306D here?
A: disrupting interaction strength

Q: V305R was tested. Which “effect of a mutation on the interaction” value did it give?
A: decreasing interaction strength

Variants of: B2
Settings: with dltb_strt2 dltB

Q: Which “effect of a mutation on the interaction” value does the source give for V39R here?
A: decreasing interaction

Q: Which “effect of a mutation on the interaction” value does the source give for V39D here?
A: decreasing interaction

Variants of: B2
Settings: with dltb_strt2 dltB, Q5M4V4

Q: With V39D as the variant, how does the “effect of a mutation on the interaction” value read?
A: decreasing interaction strength

Q: How did the “effect of a mutation on the interaction” value turn out when S35A was run?
A: decreasing interaction
